Laboratory results taken from patent US20070054344.

How the values were obtained:
[1] = tested on: T1, f-VHLT
T1 sequence: VHLT

[2] = tested on: T2, fructosyl valyl histidine
T2 sequence: VH

[3] = tested on: T3, f-VHLTPE
T3 sequence: VHLTPE

[4] = tested on: T4, N-terminal-valine fructosylated peptide having an amino acid sequence represented by SEQ ID NO: 2
T4 sequence: VHL

[5] = tested on: T5, f-VHLTP
T5 sequence: VHLTP

defructosylation enzyme originating from a plant belonging to the family Zingiberaceae (Zingiber officinale rhizome)
Absorbance at 700 nm (mAbs), colour development of DA-64 (hydrogen peroxide produced) [1]: 558 mAbs | enzyme activity with the peptide as a substrate [1]: the enzyme is effective on fructosyl valine and at least fructosyl peptides having amino acid sequences represented by SEQ ID NOs: 1 to 5 | Absorbance at 700 nm (mAbs), colour development of DA-64 (hydrogen peroxide produced) [2]: 735 mAbs | Michaelis constant (Km), Lineweaver-Burk's plots of enzyme activity (glucosone production) [2]: the Km value of the enzyme for fructosyl valyl histidine: 1.2 mM | absorbance at 550 nm (glucosone produced, glucose oxidase/peroxidase colour system) [2]: The absorbance was found to increase in accordance with the increase in concentration of fructosyl valyl histidine | enzyme activity with the peptide as a substrate [2]: the enzyme is effective on fructosyl valine and at least fructosyl peptides having amino acid sequences represented by SEQ ID NOs: 1 to 5 | Absorbance at 700 nm (mAbs), colour development of DA-64 (hydrogen peroxide produced) [3]: 223 mAbs | enzyme activity with the peptide as a substrate [3]: the enzyme is effective on fructosyl valine and at least fructosyl peptides having amino acid sequences represented by SEQ ID NOs: 1 to 5 | Absorbance at 700 nm (mAbs), colour development of DA-64 (hydrogen peroxide produced) [4]: 570 mAbs | capillary electrophoresis peak area after 16 hours of reaction at 37° C. (defructosylation) [4]: the peak attributed to f-VHL does not exist and the peak attributed to VHL is increased (area: 32 mABU×sec) | enzyme activity with the peptide as a substrate [4]: the enzyme is effective on fructosyl valine and at least fructosyl peptides having amino acid sequences represented by SEQ ID NOs: 1 to 5 | Absorbance at 700 nm (mAbs), colour development of DA-64 (hydrogen peroxide produced) [5]: 198 mAbs | enzyme activity with the peptide as a substrate [5]: the enzyme is effective on fructosyl valine and at least fructosyl peptides having amino acid sequences represented by SEQ ID NOs: 1 to 5
